Reference: patent US10196657B2, “Methods of producing 7-carbon chemicals via methyl-ester shielded carbon chain elongation” (INVISTA North America S.á r.l., priority 2012, dated 2019)

What was measured:
Format in all cases: biochemical
[1] = Thioesterase enzyme activity assay, pimeloyl-CoA to pimelate (release of CoA, Ellman's reagent); settings: 667 μM pimeloyl-CoA, 0.8 μM enzyme, pH 7.4, 37° C., 20 min; relative to empty vector control; FIG. 8
Protocol: A sequence encoding an N-terminal His tag was added to the tesB gene from Escherichia coli that encodes a thioesterase (SEQ ID NO 1, see FIG. 7A), such that an N-terminal HIS tagged thioesterase could be produced. The modified tesB gene was cloned into a pET15b expression vector under control of the T7 promoter. The expression vector was transformed into a BL21[DE3] E. coli host. The resulting recombinant E. coli strain was cultivated at 37° C. in a 500 mL shake flask culture containing 50 mL Luria Broth (LB) media and antibiotic selection pressure, with shaking at 230 rpm. The culture was induced overnight at 17° C. using 0.5 mM IPTG.
The pellet from the induced shake flask culture was harvested via centrifugation. The pellet was resuspended and lysed in Y-Per™ solution (ThermoScientific, Rockford, Ill.). The cell debris was separated from the supernatant via centrifugation. […]
The enzyme activity assay was performed in triplicate in a buffer composed of 50 mM phosphate buffer (pH=7.4), 0.1 mM Ellman's reagent, and 667 μM of pimeloyl-CoA (as substrate). […] The release of Coenzyme A was monitored by absorbance at 412 nm. The absorbance associated with the substrate only control, which contained boiled enzyme, was subtracted from the active enzyme assay absorbance and compared to the empty vector control.

[2] = Pimeloyl-[acp] methyl ester methylesterase activity assay, pimeloyl-CoA methyl ester to pimeloyl-CoA (LC-MS); settings: 10 μM enzyme, 5 mM pimeloyl-CoA methyl ester, pH 7.0, 30° C., 1 h; FIG. 20
Protocol: A nucleotide sequence encoding a C-terminal His-tag was added to the gene from Escherichia coli encoding the pimeloyl-[acp] methylester methylesterase of SEQ ID NO: 17 (see FIG. 7H) such that a C-terminal HIS tagged pimeloyl-[acp] methyl ester methylesterase could be produced. The resulting modified gene was cloned into a pET28b+ expression vector under control of the T7 promoter and the expression vector was transformed into a BL21[DE3] E. coli host. The resulting recombinant E. coli strain was cultivated at 37° C. in a 500 mL shake flask culture containing 100 mL LB media and antibiotic selection pressure, with shaking at 230 rpm. Each culture was induced overnight at 18° C. using 0.3 mM IPTG.
The pellet from each induced shake flask culture was harvested via centrifugation. Each pellet was resuspended and lysed via sonication. The cell debris was separated from the supernatant via centrifugation. […]
Enzyme activity assays converting pimeloyl-CoA methyl ester to pimeloyl-CoA were performed in triplicate in a buffer composed of a final concentration of 25 mM Tris.HCl buffer (pH=7.0) and 5 [mM] pimeloyl-CoA methyl ester. […] The formation of pimeloyl-CoA was quantified via LC-MS.

[3] = Carboxylate reductase activity assay, N7-acetyl-7-aminoheptanoate to N7-acetyl-7-aminoheptanal; settings: purified enzyme enhanced by sfp gene product, 2 mM substrate, room temperature, 20 min; against empty vector control; FIG. 12
Protocol: The activity of each of the N-terminal His-tagged carboxylate reductases of SEQ ID NOs: 3, 6, and 7 (see Examples 4, and FIGS. 7B, 7E, and 7F) for converting N7-acetyl-7-aminoheptanoate to N7-acetyl-7-aminoheptanal was assayed in triplicate in a buffer composed of a final concentration of 50 mM HEPES buffer (pH=7.5), 2 mM N7-acetyl-7-aminoheptanoate, 10 mM MgCl2, 1 mM ATP, and 1 mM NADPH. The assays were initiated by adding purified carboxylate reductase and phosphopantetheine transferase or the empty vector control to the assay buffer containing the N7-acetyl-7-aminoheptanoate then incubated at room temperature for 20 min. The consumption of NADPH was monitored by absorbance at 340 nm.

[4] = Carboxylate reductase activity assay, pimelate to pimelate semialdehyde (NADPH consumption); settings: purified enzyme enhanced by sfp gene product, 2 mM pimelate, room temperature, 20 min; against empty vector control; FIG. 10
Protocol: A sequence encoding a HIS-tag was added to the genes from Segniliparus rugosus and Segniliparus rotundus that encode the carboxylate reductases of SEQ ID NOs: 4 and 7, respectively (see FIGS. 7C and 7F), such that N-terminal HIS tagged carboxylate reductases could be produced. Each of the modified genes was cloned into a pET Duet expression vector along with a sfp gene encoding a HIS-tagged phosphopantetheine transferase from Bacillus subtilis, both under the T7 promoter. Each expression vector was transformed into a BL21[DE3] E. coli host and the resulting recombinant E. coli strains were cultivated at 37° C. in a 250 mL shake flask culture containing 50 mL LB media and antibiotic selection pressure, with shaking at 230 rpm. Each culture was induced overnight at 37° C. using an auto-induction media.
The pellet from each induced shake flask culture was harvested via centrifugation. Each pellet was resuspended and lysed via sonication, and the cell debris was separated from the supernatant via centrifugation. […]
Enzyme activity assays (i.e., from pimelate to pimelate semialdehyde) were performed in triplicate in a buffer composed of a final concentration of 50 mM HEPES buffer (pH=7.5), 2 mM pimelate, 10 mM MgCl2, 1 mM ATP and 1 mM NADPH. […] The consumption of NADPH was monitored by absorbance at 340 nm.

[5] = Carboxylate reductase activity assay, pimelate semialdehyde to heptanedial; settings: purified enzyme enhanced by sfp gene product, 2 mM pimelate semialdehyde, room temperature, 20 min; against empty vector control; FIG. 13
Protocol: The N-terminal His-tagged carboxylate reductase of SEQ ID NO 7 (see Example 4 and FIG. 7F) was assayed using pimelate semialdehyde as substrate. The enzyme activity assay was performed in triplicate in a buffer composed of a final concentration of 50 mM HEPES buffer (pH=7.5), 2 mM pimelate semialdehyde, 10 mM MgCl2, 1 mM ATP and 1 mM NADPH. The enzyme activity assay reaction was initiated by adding purified carboxylate reductase and phosphopantetheine transferase or the empty vector control to the assay buffer containing the pimelate semialdehyde and then incubated at room temperature for 20 min. The consumption of NADPH was monitored by absorbance at 340 nm.

B1: gene product of tesB: Escherichia coli thioesterase encoded by tesB, GenBank Accession No. AAA24665.1 (protein, listed as Escherichia coli)
chain: MSQALKNLLTLLNLEKIEEGLFRGQSEDLGLRQVFGGQVVGQALYAAKETVPEERLVHSFHSYFLRPGDSKKPIIYDVETLRDGNSFSARRVAAIQNGKPIFYMTASFQAPEAGFEHQKTMPSAPAPDGLPSETQIAQSLAHLLPPVLKDKFICDRPLEVRPVEFHNPLKGHVAEPHRQVWIRANGSVPDDLRVHQYLLGYASDLNFLPVALQPHGIGFLEPGIQIATIDHSMWFHRPFNLNEWLLYSVESTSASSARGFVRGEFYTQDGVLVASTVQEGVMRNHN
acceptance of pimeloyl-CoA as substrate (release of Coenzyme A, absorbance at 412 nm) [1]: accepted pimeloyl-CoA as substrate

B2: SEQ ID NO. 17: Escherichia coli pimelyl-[acp] methyl ester esterase, GenBank Accession No. AAC76437.1 (protein, listed as Escherichia coli)
chain: MNNIWWQTKGQGNVHLVLLHGWGLNAEVWRCIDEELSSHFTLHLVDLPGFGRSRGFGALSLADMAEAVLQQAPDKAIWLGWSLGGLVASQIALTHPERVQALVTVASSPCFSARDEWPGIKPDVLAGFQQQLSDDFQRTVERFLALQTMGTETARQDARALKKTVLALPMPEVDVLNGGLEILKTVDLRQPLQNVSMPFLRLYGYLDGLVPRKVVPMLDKLWPHSESYIFAKAAHAPFISHPAEFCHLLVALKQRV
acceptance of pimeloyl-CoA methyl ester as substrate, forming pimeloyl-CoA (LC-MS) [2]: accepted pimeloyl-CoA methyl ester as substrate

B3: SEQ ID NO 7: Segniliparus rotundus carboxylate reductase, Genbank Accession No. ADG98140.1 (protein, listed as Segniliparus rotundus)
chain: MTQSHTQGPQASAAHSRLARRAAELLATDPQAAATLPDPEVVRQATRPGLRLAERVDAILSGYADRPALGQRSFQTVKDPITGRSSVELLPTFDTITYRELRERATAIASDLAHHPQAPAKPGDFLASIGFISVDYVAIDIAGVFAGLTAVPLQTGATLATLTAITAETAPTLFAASIEHLPTAVDAVLATPSVRRLLVFDYRAGSDEDREAVEAAKRKIADAGSSVLVDVLDEVIARGKSAPKAPLPPATDAGDDSLSLLIYTSGSTGTPKGAMYPERNVAHFWGGVWAAAFDEDAAPPVPAINITFLPLSHVASRLSLMPTLARGGLMHFVAKSDLSTLFEDLKLARPTNLFLVPRVVEMLYQHYQSELDRRGVQDGTREAEAVKDDLRTGLLGGRILTAGFGSAPLSAELAGFIESLLQIHLVDGYGSTEAGPVWRDGYLVKPPVTDYKLIDVPELGYFSTDSPHPRGELAIKTQTILPGYYKRPETTAEVFDEDGFYLTGDVVAQIGPEQFAYVDRRKNVLKLSQGEFVTLAKLEAAYSSSPLVRQLFVYGSSERSYLLAVIVPTPDALKKFGVGEAAKAALGESLQKIARDEGLQSYEVPRDFIIETDPFTVENGLLSDARKSLRPKLKEHYGERLEAMYKELADGQANELRDIRRGVQQRPTLETVRRAAAAMLGASAAEIKPDAHFTDLGGDSLSALTFSNFLHDLFEVDVPVGVIVSAANTLGSVAEHIDAQLAGGRARPTFATVHGKGSTTIKASDLTLDKFIDEQTLEAAKHLPKPADPPRTVLLTGANGWLGRFLALEWLERLAPAGGKLITIVRGKDAAQAKARLDAAYESGDPKLAGHYQDLAATTLEVLAGDFSEPRLGLDEATWNRLADEVDFISHPGALVNHVLPYNQLFGPNVAGVAEIIKLAITTRIKPVTYLSTVAVAAGVEPSALDEDGDIRTVSAERSVDEGYANGYGNSKWGGEVLLREAHDRTGLPVRVFRSDMILAHQKYTGQVNATDQFTRLVQSLLATGLAPKSFYELDAQGNRQRAHYDGIPVDFTAESITTLGGDGLEGYRSYNVFNPHRDGVGLDEFVDWLIEAGHPITRIDDYDQWLSRFETSLRGLPESKRQASVLPLLHAFARPGPAVDGSPFRNTVFRTDVQKAKIGAEHDIPHLGKALVLKYADDIKQLGLL
acceptance of N7-acetyl-7-aminoheptanoate as substrate (NADPH consumption, absorbance at 340 nm) [3]: accepted N7-acetyl-7-aminoheptanoate as substrate | acceptance of pimelate as substrate (NADPH consumption, absorbance at 340 nm) [4]: accepted pimelate as substrate | acceptance of pimelate semialdehyde as substrate, forming heptanedial (NADPH consumption, absorbance at 340 nm) [5]: accepted pimelate semialdehyde as substrate
